Results reported in PMC4406679.

Target: T1, His-OpaR (Vibrio parahaemolyticus BB22OP) (UniProt Q79YV4)
T1 sequence: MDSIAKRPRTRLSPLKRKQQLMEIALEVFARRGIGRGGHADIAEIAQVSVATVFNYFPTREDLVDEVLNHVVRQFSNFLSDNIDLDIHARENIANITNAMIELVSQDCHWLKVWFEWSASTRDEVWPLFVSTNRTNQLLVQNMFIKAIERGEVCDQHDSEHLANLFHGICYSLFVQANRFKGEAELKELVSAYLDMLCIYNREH
Test: EMSA
Conditions: 10 mM Tris-HCl pH 7.5, 50 mM NaCl, 1 mM MgCl2, 0.5 mM EDTA, 0.5 mM DTT, 0.05 mg/ml poly d(I-C), 150 ug/ml BSA; temperature not stated

With “CTGTAAGTGAAGAATAATACCGAATGAAGTTTAAAGGCGCTCGAATGAGCGCCTTTTTTATTTGTCATGGAAAACGATAAGAACGAATATGCCGAACATTGAGATCATTCGCTTTAACCACTT (double strand) [araC family (VPBB_A0554) promoter]” the binding was “no binding”.
